Measurements from patent US20190010248A1 (Pieris, published 2019).

Target: T1, recombinant CD137-Fc fusion (#838-4B-100, R&D Systems) (human, UniProt Q07011 24-186)
T1 construct: also called Fc-fusion of human CD137; human CD137-Fc; not shown: Fc part of the bought fusion
Test: ELISA, CD137-Fc coated, detection with anti-hNGAL antibody-HRP

B1: lipocalin mutein of SEQ ID NO: 2 (designed binder)
chain: QDSTSDLIPAPPLSKVPLQQNFQDNQFHGKWYVVGQAGNIRLREDKDPIKMMATIYELKEDKSYDVTMVKFDDKKCMYDIWTFVPGSQPGEFTLGKIKSFPGHTSSLVRVVSTNYNQHAMVFFKFVFQNREEFYITLYGRTKELTSELKENFIRFSKSLGLPENHIVFPVPIDQCIDG
notes: also called positive control lipocalin mutein; CD137-specific lipocalin mutein in monomeric form
With B1 as the binder, how does the EC50 read?
The EC50 was 0.49 nM.
